The values that follow come from paper PMC12152508, “Altering 15‐Lipoxygenases to 18‐Lipoxygenases and Their Application to the Production of 5,18‐Dihydroxyeicosapentaenoic Acids” (Biotechnology and Bioengineering, 2025).

Numbering of substitutions follows the chain as printed. In names and notes the source's numbering stands.

Substrate in series [1]: CC/C=C\C/C=C\C/C=C\C/C=C\C/C=C\CCCC(=O)O
The series can be described thus: purified protein. The class given is biochemical, Archangium violaceum. The note with it: 50 mM HEPES pH 8.5, 20°C.

Substrate in series [2]: CC/C=C\C/C=C\C/C=C\C/C=C\C/C=C\CCCC(=O)O
The series can be described thus: purified protein. The class given is biochemical, Sorangium cellulosum. The settings on record: 50 mM HEPES pH 8.0, 20°C.

B1: 15S-LOX from Archangium violaceum (Archangium violaceum Cb vi76; L429W/L430M/L575M) (protein)
chain: MRSIPSLPQNDSPAQQELRLATLTQERQVYAYNFDSRLSPLGIAAQVPRQDNFSFVWLDGVATTGLQLLGNVLAIGAKLFDNGEAIQNDAGLSELELRRVEGTYRELTDGFSRLSDRTSRLHQAPRSPAVTLIADVIERPRTLLKAAGQKLEETAGVAIVSELATQAALDAPAIGQDILDLIDTLLKKLLSEAGDLFLKYLGLYGKAASLDNYTAQFSLLQPPSVASNYETDLIFARMRLAGPNPALLQGIAALPEKFPVTDAQYQSVMGSQDTLARAGQEGRLYLLDYAVFQGIPTGQTSGGQKYIEAPLALFAVPAANQADRKLRAVAIQCSQTPGRSNPIFTPADGTSWSLARLHVQVADGNYHELIAHLGLTHLILEEFTLSTHRQLAPQHPLYLLLTPHFQGTLAINNAAETSLIAPGGPVDQWMAGEIKASTQVSIQAVANQSINQSFLPRALAARGVDDASKLPDYPYRDDALLLWNDIRAWVSDYLAIYYNDDAAVRSDYELQAWVTELASPDAGKLKDVTEGGGGIQTFEYLVDLTTYIIFTASVQHAAVNFPQRTVMSYTPALPMAAYAPAPTSVEELPPSTELTHLPPLQMAFLQQAVTFGLGNVYFTRLGGYDTYLREPWFADARVWPALEVFQKRLRATEREIGQRNLSRIPYETLLPTAIPQSINI
notes: expressed from pET-28a(+) in E. coli C2566, His-Trap purified
As usually defined, the Km is the substrate concentration at which the rate is half of its maximum. For orientation: kcat means the number of substrate molecules converted per active site and unit of time at saturation. As usually defined, the kcat/Km is the turnover number divided by the Michaelis constant. Consider B1, for which, in “purified protein [1]” (products 15S- and 18S-HpEPEs), the Km is 221.3 µM, the catalytic constant (kcat) is 118 s⁻¹ and the kcat/Km stood at 530000 M⁻¹ s⁻¹.

B2: 15S-LOX from Archangium violaceum (Archangium violaceum Cb vi76) (protein)
chain: B1 chain with W429L, M430L, M575L
notes: as for B1
Consider B2, for which, in the series “purified protein [1]” (product 15S-HpEPE), the Km was determined as 40.7 µM, the kcat worked out at 61.4 s⁻¹ and the kcat/Km turned out to be 1.51e+06 M⁻¹ s⁻¹.

B3: 15S-LOX from Archangium violaceum (Archangium violaceum Cb vi76; L429W) (protein)
chain: B1 chain with M430L, M575L
notes: as for B1
For the protein B3, in the series “purified protein [1]” (products 15S- and 18S-HpEPEs), the Michaelis-Menten constant (Km) is 35.6 µM, the kcat came out at 51.8 s⁻¹ and the kcat/Km turned out to be 1.45e+06 M⁻¹ s⁻¹.

B4: 15S-LOX from Archangium violaceum (Archangium violaceum Cb vi76; L429W/L430M) (protein)
chain: B1 chain with M575L
notes: as for B1
In the case of B4, in “purified protein [1]” (products 15S- and 18S-HpEPEs), the Km came out at 57.2 µM, the kcat came to 48.7 s⁻¹ and the catalytic efficiency (kcat/Km) was 850000 M⁻¹ s⁻¹.

B5: 15R-LOX from Sorangium cellulosum (Sorangium cellulosum) (protein)
chain: MSNPSLPQNDSPAEQQQRKSELARAQQTYVYDHDTRLSPLGVAQSVPNGQGFAPILVGSAALVILDLVGNVVAKASKLVGSDGSLRSPKGAPLDDATSARIQGVLHDLKQRHRELTLVLTPLHGEPERAPAPPPRAPAVALVEGVAQKFVTTAENRAMESVLGATNLSTKNVGDIIKSLLDTLLSAAGKLLLDLVGMYGQATSVYDYVSEFQTFRLPEIASVYQDDAIFAWMRVAGPNPLVLKRVASPGASFPVTDAQYRSVMGEGDSLASAGKEGRLYLADYKALSQLVPGTAPDQQKYVEAPLALFAVPAAGAPSRLLRPVAIQCAQAPGAASPIFTPSDGVAWEVAKLHVQVADGNFHELISHLGQTHLVLEAFAMATPRQLAPEHPVNVLLTPHFQGTLAINNAAEADLIAPGGPVDNLLAGTIASSTQLAVDAVLSYSVNQQFLPVALAQRGVDDPSTLPSYPYRDDATLLWGAIHTWVSRYLAVYYTSDADVLGDYELQHWIAELSSPSGCGLKDIGEDGAIRTVAYLADLLTHVIFTASAQHAAVNFPQSSLMSFTPALPLAAYAPAPSITAGLPPSEIFQHLPPLQQALLQINVMMLLGGVYYSRLGDYDRNIPGAYFTDARVREPLEAFQRELMEIEATIGKRNLQRFPYVVLLPSQIPQSINI
Regarding B5, in “purified protein [2]” (product 15R-HpEPE), the Km came to 41.9 µM, the kcat amounted to 68 s⁻¹ and the kcat/Km is 1.62e+06 M⁻¹ s⁻¹.

B6: 15R-LOX from Sorangium cellulosum (Sorangium cellulosum; L423W) (protein)
chain: B5 chain with L423W
notes: as for B1
In the case of B6, in the series “purified protein [2]” (products 15R- and 18R-HpEPEs), the Km is 69.8 µM, the kcat turned out to be 105 s⁻¹ and the catalytic efficiency (kcat/Km) is 1.5e+06 M⁻¹ s⁻¹.

B7: 15R-LOX from Sorangium cellulosum (Sorangium cellulosum; L423W/L424M) (protein)
chain: B5 chain with L423W, L424M
notes: as for B1
As for B7, in “purified protein [2]” (products 15R- and 18R-HpEPEs), the Km was 43.3 µM, the kcat is 22.7 s⁻¹ and the catalytic efficiency (kcat/Km) worked out at 520000 M⁻¹ s⁻¹.

B8: 15R-LOX from Sorangium cellulosum (Sorangium cellulosum; L423W/L424M/L568M) (protein)
chain: B5 chain with L423W, L424M, L568M
notes: as for B1
Turning to B8, in the series “purified protein [2]” (products 15R- and 18R-HpEPEs), the Michaelis-Menten constant (Km) was 253.7 µM, the catalytic constant (kcat) is 90.8 s⁻¹ and the kcat/Km came to 360000 M⁻¹ s⁻¹.
